Measured values published in patent publication US20150148405A1, “Expression Construct for a Lin28-Resistant Let-7 Precursor MicroRNA” (THE JOHNS HOPKINS UNIVERSITY, priority 2012, published 2015).

Legend:
Type in all cases: cell-based, mouse
Let-7a = assay: Northern blot of pre- and mature Let-7a; conditions: BDNF-treated (30 min) neurons
Description: (§1) Northern blots were carried out as described (Hwang et al., 2007), using the following LNA probes from Exiqon: Let-7a (5′ […] 3′; SEQ ID NO: 1), pre-Let-7a (5′ GTGGGTGTGACCCTA 3′; SEQ ID NO: 2), miR-17 (5′ […] 3′; SEQ ID NO: 3) and quantified by phosphoimaging.

KCC2 mRNA = assay: RT-qPCR of mRNA abundance; conditions: control neurons, BDNF 100 ng/mL, 2 hours
Description: For analysis of mRNA abundance: 1 μg of RNA was immediately reverse-transcribed into cDNA with a taqman reverse transcripton kit (Applied Biosystems) and a mixture of random decamer and oligo(dT) primers in a final volume of 30 μL and subjected to TaqMan Gene Expression Assays (Applied Biosystems) for GluR1 (assay ID: Mm00433753_m1), CaMKIIu (Mm00437967_m1), Homer2 (Mm01314936_m1), KCC2 (Mm00803929_m1), Kv1.1 (Mm00439977_s1), GW182 (Mm00523487_m1), GAPDH (Mm99999915_g1), and β-tubulin-III (Mm00727586_s1). RT-qPCR was performed using a Stratagene Mx3000P machine and software in 20 μL reactions on a 96-well optical plate at 95° C. for 5 min, followed by 40 cycles of 95° C. for 30 sec, 55° C. for 1 min and 72° C. for 30 sec. The threshold and threshold cycle (Ct) values were determined using default settings. Standard curves were constructed and used for quantitation of target transcript abundance. In this method, 1:5 dilution series of an independent Standard sample are amplified to generate a curve that relates the initial quantity of the specific target in the Standard samples to the Ct. The standard curve is then used to derive by interpolation the initial sample template quantities based on their Ct values. All derived quantities were further normalized to neuron-specific β-tubulin III, whose translational status is unchanged by BDNF (Schratt et al., 2004). […]

miR-17 = assay: Northern blot of control miRNA miR-17; conditions: BDNF-treated (30 min) neurons
Description: as §1

Dicer = assay: Immunoblotting for Dicer; conditions: BDNF-stimulated neurons, Actinomycin-D
Description: Primary cultures of mouse hippocampal neurons (DIV 14 15) were incubated in serum-reduced medium (0.5% B27 supplement) for 2 hours, followed by […] Actinomycin-D for 10-20 min. Bath application of BDNF (100 ng/mL) was for designated periods (5 min-2 hours). The cultures were washed 3 times and harvested on ice with lysis buffer (50 mM Hepes, 150 mM NaCl, 10% Glycerol, 1 mM EDTA, 1% Triton-X-100, 0.2% SDS) plus freshly added protease inhibitor cocktail (Roche) and PMSF. Protein concentration was determined by Bradford Assay. If required, lysates were treated with Lambda Protein Phosphatase according to manufacturer's instructions (New England Biolabs […]). Equal amounts of lysate protein were resolved on SDS-PAGE gels, and electrotransferred to PVDF membrane. […]

[1] = test system: hippocampal pyramidal neurons; assay: Endogenous P-body numbers by GW182 immunostaining; conditions: 75 min after stimulation; mock 11.36±1.21; p<0.05
Description: For fixed cells, confocal images were acquired in 0.3 μm (dendrites) or 1.7 μm (whole cells for arborization) Z sections on an LSM5 Pascal system (Carl Zeiss) using a 63×, 1.4 NA Plan Apochromat oil immersion objective and 2× optical zoom (dendrites) or using a 25×, 0.80 NA Plan-Neofluor multi-immersion objective and 0.7×-1× optical zoom (for whole cells). GFP was excited at 488 nm and emissions collected at 505-530 nm; mCherry was excited at 543 nm and emissions collected above 560 nm. Laser power and exposure time were adjusted to minimize photobleaching and avoid saturation. All experiments were from a minimum of 3 independent cultures and no more than 3 neurons per dish Z-stacks containing the entire neuron or process of interest were analyzed using Imaris 7.0.0 (Bitplane) and ImageJ software. […] The percent colocalization of P-body components was calculated by […]. The percent of colocalized fluorescence was calculated for each P-body component by first summing the aggregate fluorescence values that co-localized with the other P-body marker in ‘spots’, then dividing this quantity by the value of the total fluorescence intensity within the dendrite for that channel, and multiplying by 100. […]

B1: BDNF: brain-derived neurotrophic factor, a neurotrophin used to stimulate hippocampal neurons (protein, UniProt P23560 19-247, looked up)
Neurotrophic factor BDNF …: APMKEANIRGQGGLAYPGVRTHGTLESVNGPKAGSRGLTSLADTFEHVIEELLDEDQKVRPNEENNKDADLYTSRVMLSSQVPLEPPLLFLLEEYKNYLDAANMSMRVRRHSDPARRGELSVCDSISEWVTAADKKTAVDMSGGTVTVLEKVPVSKGQLKQYFYETKCNPMGYTKEGCRGIDKRHWNSQCRTTQSYVRALTMDSKKRIGWRFIRIDTSCVCTLTIKRGR
Let-7a
  pre-Let7 and mature Let-7 miRNA levels: significant decreases
KCC2 mRNA
  KCC2 mRNA levels: reduced mRNA levels
miR-17
  mature miR-17 level: modestly increased
Dicer
  Dicer levels: marked transcription-independent increase in Dicer levels
  time of peak Dicer levels after stimulation: 5 to 20 min
[1]
  endogenous P-body numbers in individual neuronal dendrites, mean±SEM: 15.48±1.26
